Consider one molecule from patent US20200079865A1 (Bristol-Myers Squibb, published 2020).

In assay [1] the target is T1, human GITR, membrane bound (on activated human T cells, 3A9-hGITR cells, huGITR knock-in mouse T cells) (human, UniProt Q9Y5U5 26-241).
T1 construct: also called TNFRSF18
T1 sequence: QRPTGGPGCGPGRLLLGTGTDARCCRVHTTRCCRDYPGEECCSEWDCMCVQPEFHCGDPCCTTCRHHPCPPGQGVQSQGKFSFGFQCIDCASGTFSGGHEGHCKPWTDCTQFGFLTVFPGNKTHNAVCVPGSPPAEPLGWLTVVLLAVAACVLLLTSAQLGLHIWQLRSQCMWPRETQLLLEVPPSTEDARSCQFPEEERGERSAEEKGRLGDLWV
Description: FACS competition on PHA-activated human T cells, pre-bound GITR-L against 0.5 ug/ml 28F3-hIgG1; partial inhibition. From the text:
(§1) The samples were acquired on a FACS Canto Flow Cytometer (BD, San Jose) and analyzed with FlowJo software (Tree Star, Inc, Ashland, Oreg.).

Assay [2] has as its target T1, human GITR, membrane bound (on …). Put plainly: FACS on PHA-activated human CD4+ and CD8+ T cells, anti-HA detection.
Text: as §1

Assay [3] shares this target. Description: FACS (MFI, PE anti-HA tag) on PHA-activated human T cells, CD8 column; the table's row head reads IC50, the text calls it EC50; unit from the axis.
Text: as §1

Assay [4] has the same target. Put plainly: FACS competition on activated human CD4+ T cells: pre-bound GITR-L titrated, then 28F3-hIgG1 at a fixed 0.5 ug/mL, detected with PE anti-human IgG Fc; unit from the axis.
Text: as §1

Assay [5] shares this target. Put plainly: FACS (MFI, PE anti-HA tag) on PHA-activated human T cells, CD4 column; the table's row head reads IC50, the text calls it EC50; unit from the axis.
Text: as §1

B1: recombinant hGITR-L trimer (R&D Systems #6987-GL) (ligand)
chain: LQLETAKEPCMAKFGPLPSKWQMASSEPPCVNKVSDWKLEILQNGLYLIYGQVAPNANYNDVAPFEVRLYKNKDMIQTLTNKSKIQNVGGTYELHVGDTIDLIFNSEHQVLKNNTYWGIILLANPQFIS
notes: Bought soluble trimer, detected through a hemagglutinin (HA) tag; also called GITR Ligand; rhGITR-L
Consider B1, for which the IC50 (usually the concentration at which inhibition is half-maximal) in assay [1] came out at 0.0024 µg/mL; in assay [4], 0.00244 µg/mL. Also, the EC50 (usually the concentration needed to bring the measured effect to its halfway point) came to 0.016 µg/mL in assay [2], 0.0163 µg/mL in assay [3] and 0.016 µg/mL in assay [5].
